In paper PMC3025461:
Each block holds one molecule with its values, some of them ahead of it.

Columns and labels:
[1] = target: S. cerevisiae Smc1 hinge protein (S480-E681), wild type (S. cerevisiae) (UniProt P32908); assay: ITC
[2] = target: S. cerevisiae Smc1DD hinge protein (S480-E681; K554D, K661D) (S. cerevisiae) (UniProt P32908); assay: ITC
[3] = target: S. cerevisiae Smc3-FLAG hinge protein (S. cerevisiae); assay: pull-down

- Kd [1]: 0.024 µM
- Kd [2]: 0.029 µM
- reduction in dH against wild-type Smc1/Smc3 [2]: 16.7 kJ/mol
Molecule: S. cerevisiae Smc3AAA hinge protein (T495-L695; R665A, K668A, R669A) (domain or fragment)

- Kd [1]: 0.022 µM
Molecule: S. cerevisiae Smc3 hinge protein (T495-L695), wild type (domain or fragment)

- half time [3]: 30 min
- half-life of the hinge dimer [3]: 15 to 30 min
B1: S. cerevisiae Smc1 hinge protein (S480-E681), wild type (domain or fragment)
chain: SANNQEYDLNFKLRETLVKIDDLSANQRETMKERKLRENIAMLKRFFPGVKGLVHDLCHPKKEKYGLAVSTILGKNFDSVIVENLTVAQECIAFLKKQRAGTASFIPLDTIETELPTLSLPDSQDYILSINAIDYEPEYEKAMQYVCGDSIICNTLNIAKDLKWKKGIRGKLVTIEGALIHKAGLMTGGISGDANNRWDKEE
